The values that follow come from paper PMC8422075 (EMBO Molecular Medicine, 2021).

This assay addresses T1, Human LAG3_(23–434) (human, UniProt P18627 23-434, fluorescently labelled (fluorophore and site not named)).
T1 construct: Used only in the microfluidic diffusional sizing; also called labelled LAG3; source: bought: BonOpusBio (#CJ91)
T1 sequence (looked up): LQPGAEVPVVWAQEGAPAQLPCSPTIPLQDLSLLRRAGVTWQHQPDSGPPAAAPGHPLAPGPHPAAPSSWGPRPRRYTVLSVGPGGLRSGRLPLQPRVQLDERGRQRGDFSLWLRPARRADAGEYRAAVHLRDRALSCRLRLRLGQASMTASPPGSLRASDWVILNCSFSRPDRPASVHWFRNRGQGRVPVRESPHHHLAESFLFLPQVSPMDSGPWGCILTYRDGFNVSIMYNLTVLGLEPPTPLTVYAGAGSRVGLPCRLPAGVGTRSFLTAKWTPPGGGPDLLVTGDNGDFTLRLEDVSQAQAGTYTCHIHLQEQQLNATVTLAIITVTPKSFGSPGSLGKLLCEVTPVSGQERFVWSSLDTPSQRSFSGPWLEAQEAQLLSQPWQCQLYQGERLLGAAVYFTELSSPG
The assay is described as follows: microfluidic diffusional sizing; fluorescently labelled protein (10 nM-10 µM) in solution, unlabelled ligand varied; PBS with 0.01% Tween-20; 60 min at room temperature; hydrodynamic radius read out; KD from Langmuir binding isotherm. The conditions noted are these: both partners purified.

B1: FGL1 Protein, Human, Recombinant (ligand, UniProt Q08830 23-312, looked up)
chain: LEDCAQEQMRLRAQVRLLETRVKQQQVKIKQLLQENEVQFLDKGDENTVIDLGSKRQYADCSEIFNDGYKLSGFYKIKPLQSPAEFSVYCDMSDGGGWTVIQRRSDGSENFNRGWKDYENGFGNFVQKHGEYWLGNKNLHFLTTQEDYTLKIDLADFEKNSRYAQYKNFKVGDEKNFYELNIGEYSGTAGDSLAGNFHPEVQWWASHQRMKFSTWDRDHDNYEGNCAEEDQSGWWFNRCHSANLNGVYYSGPYTAKTDNGIVWYTWHGWWYSLKSVVMKIRPNDFIPNVI
notes: Fibrinogen-like protein 1, human, recombinant; source: bought: Sino Biological (13484‐H08B)
The Kd is the equilibrium constant for the complex coming apart. On to B1, for which the Kd stood at 232 ± 79 nM.
